Measured values taken from the supplement of paper PMC9170038.

Tested on: MS2 coat protein
Assay: apparent KD of MS2 coat protein; higher = weaker reporter binding
Settings: Eterna round: R107
Description: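 RNA-MaP round R107: designed RNA switches with theophylline, tryptophan, arginine or FMN aptamers are transcribed on-chip within common flanks. They are titrated with SNAP-549-labelled MS2 coat protein in RNA-MaP buffer (100 mM Tris pH 7.5, 80 mM KCl, 4 mM MgCl2), without ligand or with the indicated ligand. Median apparent KD per design.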

[1] = input ligand: theophylline 20 uM
[2] = input ligand: theophylline 2 mM
[3] = input ligand: tryptophan 2.4 mM

Row | Sequence | apparent KD of MS2 coat protein (input ligand: arginine 13.2 mM) | apparent KD of MS2 coat protein [1] | apparent KD of MS2 coat protein [2] | apparent KD of MS2 coat protein (input ligand: none) | apparent KD of MS2 coat protein [3]
1 | AAAGCCACUUCGGCCGCCACUACAACAUGAGGAUCACCCAUGUACCUCGUGUACGGUCCGAGGAGUAGGACCGGGAAGUGGUGGA [(T1'')-(Trp1)-(Ms2)-(M')-(T2')-(M'')-(Trp2)-(T1')] | 94 nM | 193 nM | 175 nM |  | 
2 | GUCGGUACGUCGGCAAAGCCGAUGUGCCAGCGAGGACCGGUACGGCCGCCACUCGUACAUGAGGAUCACCCAUGUCCGGUCCGGC [Omei Trp SS A C v2] | 32.5 nM | 84.4 nM | 92.4 nM |  | 
3 | AGAUUCGACACGGCCGCCACUCGUGACGGAUUUCCGAGUGUCGAACAUGAGGAUCACCCAUGUACGAGGACCGGGUGUUGAGUCU [XTryp B #13] | 39.6 nM | 86.7 nM | 90.4 nM |  | 
4 | AAGUAAACAUGAGCAAAGCUCAUGUGCGAAGGAGCGGCGGAAACGCCAGGUAGGUCGCGCACAUGAGCAUCAGCCAUGUGUAUCA [Omei Arginine B SS A v2] | 45.3 nM | 33.5 nM | 22.1 nM | 31 nM | 9 nM
5 | AAGUGGCACGGAAGGAGCGAGUUUACCUAUUACAUGAGGAUCACCCAUGUGUAUAAUGGGACUCAGGUAGGUCGCCGUUGUCACU [Same State Arginine B GF 25] | 31.5 nM | 49 nM | 44.3 nM | 35.7 nM | 31.6 nM
6 | AUGUAGAACCGAAGGAGCGCGAUAACAUGAGGAUCACCCAUGUAGUUUUGGUGGCUUCGAUCGCAGGUAGGUCGCGGAAGUAGUA [#03 Exclusion - Arginine B] | 37.9 nM | 97.6 nM | 77 nM | 35.9 nM | 55.4 nM
7 | ACAUGAGGAUCACCCAUGUAACAAACAGAAGGAGCGUGAAAGAACACAGGUAGGUCGCUGAACUUAAUGAAUACUCAUUAGAUCC [JR_Nu_SSArginiA_Sub027] | 13.4 nM | 18.9 nM | 15.8 nM | 14.7 nM | 14.6 nM
8 | GGUACAUGAGGAUCACCCAUGUAUUAGUGCCGAGGACCGGUACGGCCGCCACUCGCUUCACAUGAGGAUCACCCAUGUGUCACAG [SSTA DOUBLE!!! :-D #13] | 22.4 nM | 38.4 nM | 39.7 nM |  | 
9 | UCUGCCGCGGCUCCGAUCCUCCUGUAGUUCCGAGGACCGGUACGGCCGCCACUCGUAGCACAUGAGGAUCACCCAUGUCUUGCGG [Tiqurabira] | 12.1 nM | 17.5 nM | 13 nM |  | 
10 | UGACAUUGCUCAGAUACCAGACAUGAGCAUCAGCCAUGUACCAAGAGUACAUGUUAAAGUGUCCCUUGGCAGCUGAGCAAUGUCU [Mod of Eli's TheoBX5 #AlternateMS2 v3] | 56.4 nM | 193 nM | 603 nM | 70.9 nM | 72 nM
11 | UCGCUCUGGGUGAGAUCCGGAGAUAUGGAAGGAGCGCUGAUGCCAGCAGGUAGGUCGCCAACGGACAUGAGGAUCACCCAUGUAC [Same State - Arginine A (Freestyle 10)] | 25 nM | 64.2 nM | 34.5 nM | 52.4 nM | 39.8 nM
12 | ACGAACGCACCUGAGGAUCACCCGGGUGAUACCAGCCUGGAAACAGGCCCUUGGCAGCACCUAAAAUAAAGGUAACGUUCGAAUA [TheoAX9 #MicroSwitchBubble #AlternativeMS2] | 116 nM | 234 nM | 590 nM | 335 nM | 303 nM
13 | ACAUGAGGAUCACCCAUGUAAUCAUCAGAAGGAGCGUGGAAUAACACAGGUAGGUCGCUGAUGUUAUAUUAAUCUUAUUCGUAAA [JR_ExcArginiA_Sub003] | 22 nM | 18.7 nM | 13.2 nM | 13.6 nM | 14.2 nM
14 | AAUAAACAUGAGGAUCACCCAUGUAGGGUGCGAGGACCGGUACGGCCGCCACUCGGGUGAAAACAUGAGGAUCACCCAUGUUAAA [Cloverleaf #DoubleMS2 #GUTurnoff] | 75.5 nM | 176 nM | 229 nM |  | 
15 | GUAGGUCAGUGAUCCCGACCUACACUGGAAGGAGCGAGCGAAAGCUCAGGUAGGUCGCCAGAAACAUGAGGAUCACCCAUGUAAU [(A)''-(M)'-(A)'-(Arg1)-(Arg2)-(M1)-(M2)_Design1] | 76.1 nM | 153 nM | 219 nM | 172 nM | 118 nM
16 | CACGGAUGAGUGGAUCACCCUCAUAAUAACCGAGGACCGGUACGGCCGCCACUCGAAAACCGUGACCUGUACGAAAAGUGCAGGA | 28 nM | 486 nM | 782 nM | 33.5 nM | 708 nM
17 | GACCCAUGAGUUGGAAAAGCUCAUGGGUCGCGAGGACCGGUACGGCCGCCACUCGGCUGUACAUGAGGAUCACCCAUGUCAGGGU [#1 Same State - Tryptophan A Attempt #25 (HarryS)] | 96.9 nM | 614 nM | 573 nM | 125 nM | 711 nM
18 | AUUAAUUGUCGUGAUACCAGACAUACAUGAGGAUCACCCAUGUUAAGUAACAUUUUUUAUGUCCCUUGGCAGCACUUUUUAAUUA [JR_Nu_SSTheophyB_Sub017] | 22 nM | 24.8 nM |  |  | 19.7 nM
